Experimental data reported in patent publication US20020004485A1 (University of California, published 2002).

Columns and labels:
[1] = target: atypical MC receptor of Cos-7 cells; test: cell-based or functional assay
[2] = target: MC receptor endogenous to Xenopus laevis melanophores (Xenopus laevis); test: cell-based or functional assay

EC50 of α-MSH for cAMP production in Cos-7 cells [1]: ~80 nM
EC50 of α-MSH alone in frog melanophores [2]: 0.03 nM
Binder: SYSMEHFRWGKPV (ligand, UniProt P01189 138-150, looked up) [α-melanocyte stimulating hormone]
